Tested on: Escherichia coli TOP10
Assay: shrunken log2 fold change of peptide-encoding DNA abundance (4.5 h post-induction vs induction); higher = less antimicrobial activity (less host growth inhibition)
Conditions: time post-induction: 4.5 h; library: site-saturation at positions 5, 18, 19, 20
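Also: peptides expressed intracellularly from a pBAD plasmid library in pooled LB shake-flask culture, induced with 0.3% L-arabinose, DNA abundance read by NGS, three biological replicates, DESeq2 with apeglm shrinkage.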

Sequence	shrunken log2 fold change
RRIRGRPPRLPRPRPRPTIFPRP	0.127
RRIRMRPPRLPRPRPRPYTAPRP	0.147
RRIRDRPPRLPRPRPRPWHDPRP	0.0315
RRIRERPPRLPRPRPRPATFPRP	-0.177
RRIRCRPPRLPRPRPRPAVGPRP	0.155
RRIRSRPPRLPRPRPRPIKVPRP	-0.181
RRIRLRPPRLPRPRPRPYQTPRP	0.0345
RRIRPRPPRLPRPRPRPAQYPRP	0.0469
RRIRPRPPRLPRPRPRPNKGPRP	-0.266
RRIRCRPPRLPRPRPRPQIRPRP	-0.332
RRIRFRPPRLPRPRPRPEDSPRP	-0.00878
RRIRKRPPRLPRPRPRPGDMPRP	0.277
RRIRNRPPRLPRPRPRPYHEPRP	-0.342
RRIRARPPRLPRPRPRPIFRPRP	0.205
RRIRWRPPRLPRPRPRPVMKPRP	0.12
RRIRPRPPRLPRPRPRPCHDPRP	-0.097
RRIRSRPPRLPRPRPRPMNEPRP	-0.457
RRIRSRPPRLPRPRPRPRFFPRP	0.108
RRIRQRPPRLPRPRPRPAIMPRP	-0.159
RRIRMRPPRLPRPRPRPVFAPRP	0.378
RRIRYRPPRLPRPRPRPGKSPRP	0.0131
RRIRERPPRLPRPRPRPEPMPRP	-0.0016
RRIRMRPPRLPRPRPRPDRRPRP	-0.0127
RRIRARPPRLPRPRPRPYCNPRP	-0.378
RRIRTRPPRLPRPRPRPILPPRP	-0.066

Sequence	shrunken log2 fold change
RRIRHRPPRLPRPRPRPKALPRP	0.0359
RRIRFRPPRLPRPRPRPVQEPRP	0.0623
RRIRDRPPRLPRPRPRPDYYPRP	0.00235
RRIRYRPPRLPRPRPRPDPIPRP	-0.168
RRIRMRPPRLPRPRPRPSNCPRP	-0.376
RRIRVRPPRLPRPRPRPAPFPRP	0.0259
RRIRFRPPRLPRPRPRPTSFPRP	0.0329
RRIRFRPPRLPRPRPRPQYCPRP	-0.943
RRIRSRPPRLPRPRPRPVNNPRP	-0.363
RRIRDRPPRLPRPRPRPNTDPRP	-0.179
RRIRPRPPRLPRPRPRPRRIPRP	0.252
RRIRDRPPRLPRPRPRPSYPPRP	-0.2
RRIRVRPPRLPRPRPRPEQEPRP	-0.0189
RRIRMRPPRLPRPRPRPKHKPRP	0.562
RRIRTRPPRLPRPRPRPTTGPRP	-0.191
RRIRCRPPRLPRPRPRPWFDPRP	-0.496
RRIRNRPPRLPRPRPRPVYTPRP	-0.361
RRIRQRPPRLPRPRPRPCKMPRP	0.0276
RRIRDRPPRLPRPRPRPMMIPRP	0.0818
RRIRFRPPRLPRPRPRPHWDPRP	-0.21
RRIRARPPRLPRPRPRPNRPPRP	-0.111
RRIRMRPPRLPRPRPRPAGYPRP	0.572
RRIRHRPPRLPRPRPRPFSCPRP	-0.0244
RRIRARPPRLPRPRPRPLKFPRP	-0.38
RRIRVRPPRLPRPRPRPKNKPRP	-0.169

Sequence	shrunken log2 fold change
RRIRWRPPRLPRPRPRPSWDPRP	0.251
RRIRRRPPRLPRPRPRPHIMPRP	-0.435
RRIRYRPPRLPRPRPRPHAHPRP	-0.479
RRIRHRPPRLPRPRPRPFMEPRP	-1
RRIRGRPPRLPRPRPRPMCHPRP	0.874
RRIRERPPRLPRPRPRPCSMPRP	-0.0884
RRIRCRPPRLPRPRPRPVDGPRP	0.0228
RRIRARPPRLPRPRPRPAKCPRP	-6.11e-05
RRIRGRPPRLPRPRPRPFYQPRP	0.0158
RRIRPRPPRLPRPRPRPMFMPRP	0.0765
RRIRPRPPRLPRPRPRPKFRPRP	-0.122
RRIRNRPPRLPRPRPRPQIAPRP	-0.155
RRIRYRPPRLPRPRPRPPLMPRP	-0.293
RRIRSRPPRLPRPRPRPNPTPRP	0.017
RRIRCRPPRLPRPRPRPQQYPRP	-0.709
RRIRERPPRLPRPRPRPHDVPRP	0.00785
RRIRMRPPRLPRPRPRPVETPRP	-0.00114
RRIRWRPPRLPRPRPRPPGTPRP	0.475
RRIRWRPPRLPRPRPRPFYMPRP	-0.297
RRIRMRPPRLPRPRPRPQSDPRP	-0.00296
RRIRERPPRLPRPRPRPRAAPRP	0.448
RRIRQRPPRLPRPRPRPIMPPRP	-0.361
RRIRMRPPRLPRPRPRPWALPRP	0.0536
RRIRSRPPRLPRPRPRPTDFPRP	-0.541
RRIRYRPPRLPRPRPRPYEEPRP	-0.0354

Sequence	shrunken log2 fold change
RRIRCRPPRLPRPRPRPRHHPRP	-0.088
RRIRYRPPRLPRPRPRPMYEPRP	-0.101
RRIRIRPPRLPRPRPRPIAQPRP	-0.373
RRIRNRPPRLPRPRPRPLRWPRP	1.25
RRIRHRPPRLPRPRPRPRSTPRP	-0.00721
RRIRRRPPRLPRPRPRPEWDPRP	0.426
RRIRWRPPRLPRPRPRPQHTPRP	0.0837
RRIRDRPPRLPRPRPRPWICPRP	-0.298
RRIRVRPPRLPRPRPRPEAIPRP	-0.0125
RRIRKRPPRLPRPRPRPCYYPRP	-0.48
RRIRMRPPRLPRPRPRPDPIPRP	-0.249
RRIRLRPPRLPRPRPRPCGIPRP	0.142
RRIRCRPPRLPRPRPRPPTMPRP	0.143
RRIRMRPPRLPRPRPRPGIEPRP	2.2
RRIRKRPPRLPRPRPRPPQPPRP	0.856
RRIRQRPPRLPRPRPRPESNPRP	-0.257
RRIRHRPPRLPRPRPRPWMEPRP	-0.00645
RRIRTRPPRLPRPRPRPHCHPRP	-0.0122
RRIRERPPRLPRPRPRPSVGPRP	0.0861
RRIRYRPPRLPRPRPRPQLRPRP	-0.193
RRIRWRPPRLPRPRPRPICCPRP	0.149
RRIRMRPPRLPRPRPRPNRIPRP	-0.18
RRIRPRPPRLPRPRPRPSPLPRP	0.0443
RRIRMRPPRLPRPRPRPFNYPRP	-0.559
RRIRHRPPRLPRPRPRPIMLPRP	-0.389

Sequence	shrunken log2 fold change
RRIRNRPPRLPRPRPRPLIHPRP	-0.714
RRIRPRPPRLPRPRPRPKAAPRP	0.386
RRIRSRPPRLPRPRPRPLKQPRP	-0.0432
RRIRQRPPRLPRPRPRPHGVPRP	-0.226
RRIRGRPPRLPRPRPRPHPFPRP	-0.0384
RRIRHRPPRLPRPRPRPSLWPRP	0.257
RRIRWRPPRLPRPRPRPAFYPRP	0.371
RRIRERPPRLPRPRPRPCGMPRP	-0.398
RRIRCRPPRLPRPRPRPEPMPRP	0.176
RRIRYRPPRLPRPRPRPNVYPRP	-1.2
RRIRFRPPRLPRPRPRPMCIPRP	-0.075
RRIRPRPPRLPRPRPRPYLQPRP	-0.831
RRIRPRPPRLPRPRPRPHDSPRP	-0.134
RRIRERPPRLPRPRPRPWLIPRP	-0.397
RRIRIRPPRLPRPRPRPEEIPRP	-0.0261
RRIRARPPRLPRPRPRPTMLPRP	0.15
RRIRERPPRLPRPRPRPAKEPRP	0.0889
RRIRKRPPRLPRPRPRPGKHPRP	0.258
RRIRGRPPRLPRPRPRPGDQPRP	0.777
RRIRCRPPRLPRPRPRPSMWPRP	-0.648
RRIRCRPPRLPRPRPRPCNKPRP	-0.671
RRIRHRPPRLPRPRPRPWATPRP	-0.0619
RRIRFRPPRLPRPRPRPQCFPRP	-0.0591
RRIRERPPRLPRPRPRPGELPRP	-0.26
RRIRPRPPRLPRPRPRPETNPRP	0.192

Sequence	shrunken log2 fold change
RRIRNRPPRLPRPRPRPNAEPRP	0.388
RRIRYRPPRLPRPRPRPNSWPRP	-0.0916
RRIRDRPPRLPRPRPRPQSKPRP	-0.0457
RRIRTRPPRLPRPRPRPWRAPRP	0.21
RRIRYRPPRLPRPRPRPEIEPRP	-0.0892
RRIRIRPPRLPRPRPRPMIWPRP	-0.0224
RRIRMRPPRLPRPRPRPVSWPRP	0.553
RRIRLRPPRLPRPRPRPWYCPRP	-0.766
RRIRCRPPRLPRPRPRPQWIPRP	-0.692
RRIRERPPRLPRPRPRPPEVPRP	0.452
RRIRSRPPRLPRPRPRPFSIPRP	-0.379
RRIRERPPRLPRPRPRPRMWPRP	0.302
RRIRARPPRLPRPRPRPGMFPRP	0.295
RRIRERPPRLPRPRPRPQNWPRP	-0.0518
RRIRGRPPRLPRPRPRPSVKPRP	0.293
RRIRHRPPRLPRPRPRPNHGPRP	0.0424
RRIRHRPPRLPRPRPRPEDMPRP	-0.208
RRIRWRPPRLPRPRPRPLSRPRP	0.141
RRIRSRPPRLPRPRPRPGFMPRP	-0.101
RRIRVRPPRLPRPRPRPVYNPRP	-0.738
RRIRRRPPRLPRPRPRPPCMPRP	0.404
RRIRRRPPRLPRPRPRPMTKPRP	0.0629
RRIRDRPPRLPRPRPRPQWQPRP	-0.0558
RRIRNRPPRLPRPRPRPYVEPRP	-0.00677
RRIRLRPPRLPRPRPRPFPLPRP	-0.0787
